In US20130345135A1 (WISCONSIN ALUMNI RESEARCH FOUNDATION, published 2013):

Target: myosin in murine skinned myocardium (principal isoform alpha-cardiac myosin) (mouse, UniProt Q02566 1-1938)
Assay: cell-based or functional assay

myosin in murine skinned myocardium (principal isoform alpha-cardiac myosin), sequence (Q02566 whole entry, canonical isoform): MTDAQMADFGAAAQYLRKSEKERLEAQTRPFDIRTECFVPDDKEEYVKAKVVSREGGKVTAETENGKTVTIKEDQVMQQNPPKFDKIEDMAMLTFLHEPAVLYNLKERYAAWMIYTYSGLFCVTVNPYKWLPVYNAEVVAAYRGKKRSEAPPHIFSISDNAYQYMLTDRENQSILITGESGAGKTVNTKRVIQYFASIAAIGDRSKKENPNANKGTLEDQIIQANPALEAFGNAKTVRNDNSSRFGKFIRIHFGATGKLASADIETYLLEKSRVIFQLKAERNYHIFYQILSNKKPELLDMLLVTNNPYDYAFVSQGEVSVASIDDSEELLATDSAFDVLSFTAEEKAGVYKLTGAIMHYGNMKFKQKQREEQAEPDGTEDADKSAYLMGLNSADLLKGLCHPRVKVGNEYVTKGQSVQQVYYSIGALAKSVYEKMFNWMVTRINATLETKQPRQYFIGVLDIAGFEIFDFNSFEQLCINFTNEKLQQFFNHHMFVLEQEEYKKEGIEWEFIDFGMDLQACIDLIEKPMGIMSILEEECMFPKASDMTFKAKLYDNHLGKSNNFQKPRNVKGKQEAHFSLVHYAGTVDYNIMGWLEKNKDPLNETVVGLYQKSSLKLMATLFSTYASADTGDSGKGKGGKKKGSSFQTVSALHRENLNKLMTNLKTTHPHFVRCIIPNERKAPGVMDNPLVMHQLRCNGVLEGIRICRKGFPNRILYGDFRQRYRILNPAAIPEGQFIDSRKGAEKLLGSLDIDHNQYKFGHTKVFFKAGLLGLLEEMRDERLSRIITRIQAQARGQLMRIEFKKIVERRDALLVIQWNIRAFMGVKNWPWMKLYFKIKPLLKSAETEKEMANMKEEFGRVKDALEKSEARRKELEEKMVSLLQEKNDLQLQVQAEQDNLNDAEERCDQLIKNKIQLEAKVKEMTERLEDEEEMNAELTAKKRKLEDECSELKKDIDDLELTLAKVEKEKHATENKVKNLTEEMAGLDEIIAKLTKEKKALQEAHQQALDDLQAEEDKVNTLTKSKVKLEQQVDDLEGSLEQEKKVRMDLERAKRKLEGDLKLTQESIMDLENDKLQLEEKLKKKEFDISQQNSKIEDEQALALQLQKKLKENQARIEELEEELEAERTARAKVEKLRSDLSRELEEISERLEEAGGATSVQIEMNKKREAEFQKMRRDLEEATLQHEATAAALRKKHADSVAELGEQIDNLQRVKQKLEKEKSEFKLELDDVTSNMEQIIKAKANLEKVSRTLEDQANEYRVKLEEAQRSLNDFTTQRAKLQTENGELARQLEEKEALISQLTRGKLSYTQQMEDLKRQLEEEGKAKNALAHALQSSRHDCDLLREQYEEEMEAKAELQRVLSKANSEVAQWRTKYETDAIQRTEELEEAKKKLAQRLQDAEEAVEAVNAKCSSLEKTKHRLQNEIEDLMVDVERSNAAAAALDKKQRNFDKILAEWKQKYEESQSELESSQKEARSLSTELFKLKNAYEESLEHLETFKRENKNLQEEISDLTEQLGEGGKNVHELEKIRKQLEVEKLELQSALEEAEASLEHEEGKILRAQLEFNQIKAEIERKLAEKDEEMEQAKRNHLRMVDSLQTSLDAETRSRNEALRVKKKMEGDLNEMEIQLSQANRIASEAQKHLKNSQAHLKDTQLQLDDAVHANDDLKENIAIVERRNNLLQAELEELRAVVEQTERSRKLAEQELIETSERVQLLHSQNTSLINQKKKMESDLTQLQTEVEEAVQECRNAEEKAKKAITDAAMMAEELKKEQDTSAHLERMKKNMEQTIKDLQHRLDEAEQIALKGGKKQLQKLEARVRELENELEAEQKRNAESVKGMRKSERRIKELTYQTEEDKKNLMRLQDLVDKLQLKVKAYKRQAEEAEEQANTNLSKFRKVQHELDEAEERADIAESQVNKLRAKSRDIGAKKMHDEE

FSSLLKKRDAFRRDAKLE [peptide 302A]
force at intermediate pCa (scaled to force at pCa 4.5), mouse, 50 uM peptide, fold of control: ~2 x control | force at pCa 5.9 (scaled to force at pCa 4.5), mouse, 50 uM peptide, fold of untreated: ~3 x (fold of untreated force)
